Measured values as given in US20030212252A1.

Biological target: Dog MCH receptor (dog)
Experiment: cell-based or functional assay

Sequence of Dog MCH receptor (dog) (Q5IJ49 other isoform, or with tags, fused parts or gaps): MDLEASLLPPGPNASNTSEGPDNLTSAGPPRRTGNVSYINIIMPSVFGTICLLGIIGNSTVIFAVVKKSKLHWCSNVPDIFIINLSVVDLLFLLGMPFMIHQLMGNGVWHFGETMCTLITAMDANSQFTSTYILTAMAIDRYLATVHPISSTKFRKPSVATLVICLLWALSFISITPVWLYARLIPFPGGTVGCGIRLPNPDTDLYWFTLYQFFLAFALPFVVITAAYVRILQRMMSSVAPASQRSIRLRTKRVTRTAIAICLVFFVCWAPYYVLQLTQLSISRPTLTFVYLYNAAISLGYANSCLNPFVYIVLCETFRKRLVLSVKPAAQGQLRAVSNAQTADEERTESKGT

EC50 for activation of the dog MCH receptor (aequorin bioluminescence, fractional response, in transfected 293-AEQ17 cells): 30 nM
Substance: Melanin-concentrating hormone (MCH) (from UniProt P20382 147-165) (peptide)
